Test results taken from PMC3983218.

Biological target: EcoSSB (Escherichia coli, UniProt P0AGE0)
Test: EMSA; Complex I at low and Complex II at high SSB; 0.2, 2, 10 pmol tetramer, 1 pmol DNA; 20 mM Tris-HCl pH 8.0, 50 mM NaCl, 5% glycerol, 50 μg/ml BSA, 15 μl, 30 min at 4°C; 8% native PAGE in 1x TBE
Conditions: protein: recombinant; chain copies: 4; label: 5' 32P; single strand

Chain of EcoSSB (P0AGE0 whole entry): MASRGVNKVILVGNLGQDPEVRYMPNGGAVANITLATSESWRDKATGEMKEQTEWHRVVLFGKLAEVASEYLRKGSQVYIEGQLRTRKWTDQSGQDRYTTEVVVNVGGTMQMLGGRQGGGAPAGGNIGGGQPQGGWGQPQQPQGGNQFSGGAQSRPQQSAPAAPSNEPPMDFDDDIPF

B1: 79 mer ssDNA (ssDNA)
DNA: GCACTAGTGCGGATAGCCCCGTGTTGTTGTCTGACCCCCGACCCCGACGGCAATGCGGGGCAATCCCCTGGAGGCCTGC
Q: Does B1 bind?
A: Result: binds
